Source: patent publication US20260234247A1 (published 2026)

What was measured:
[1] = target: T1, human LILRB1 on CHOK1 cells (human, UniProt Q8NHL6 24-650); assay: cell-based RBA (FACS): blocking of HLA-G binding to CHOK1-hLILRB1 cells
T1 construct: whole, on cells; also called CHOK1-hLILRB1; CHOK1-LILRB1

[2] = target: T2, human LILRB2 on CHOK1 cells (human, UniProt Q8N423 22-597); assay: FACS binding, CHOK1-hLILRB2 cells
T2 construct: whole, on cells; also called CHOK1-hLILRB2; CHOK1-LILRB2

[3] = target: T1, human LILRB1 on CHOK1 cells; assay: FACS binding, CHOK1-hLILRB1 cells
human LILRB1 = target: T3, human LILRB1 (human, UniProt Q8NHL6 24-458, limits assumed); assay: Octet off-rate ranking;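 note: antibody dissociation rate constants against cynomolgus LILRB2 plus human LILRB1, LILRB2, LILRA1 and LILRA2, measured on an Octet instrument to rank binding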
T3 construct: also called hLILRB1
T3 sequence (Q8NHL6 24-458 limits assumed): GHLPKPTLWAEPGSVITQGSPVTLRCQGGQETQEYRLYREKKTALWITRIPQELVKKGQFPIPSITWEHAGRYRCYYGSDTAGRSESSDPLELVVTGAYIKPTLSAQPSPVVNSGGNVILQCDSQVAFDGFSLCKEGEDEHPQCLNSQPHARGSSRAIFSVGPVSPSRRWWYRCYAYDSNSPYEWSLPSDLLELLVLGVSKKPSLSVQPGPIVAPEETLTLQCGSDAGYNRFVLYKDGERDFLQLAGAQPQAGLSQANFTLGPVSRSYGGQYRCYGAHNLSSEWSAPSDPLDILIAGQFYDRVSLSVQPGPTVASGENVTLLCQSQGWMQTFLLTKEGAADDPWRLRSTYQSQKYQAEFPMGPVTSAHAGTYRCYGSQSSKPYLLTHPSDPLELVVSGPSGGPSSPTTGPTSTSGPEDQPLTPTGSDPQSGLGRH
Source text: Binding affinity of anti-LILRB1 and anti-LILRB2 antibodies against human LILRB1, LILRB2, LILRA1, LILRA2 and cynomolgus LILRB2 was ranked by measuring dissociation rate constant (Kdis) using the Octet system.

T1 sequence (Q8NHL6 24-650): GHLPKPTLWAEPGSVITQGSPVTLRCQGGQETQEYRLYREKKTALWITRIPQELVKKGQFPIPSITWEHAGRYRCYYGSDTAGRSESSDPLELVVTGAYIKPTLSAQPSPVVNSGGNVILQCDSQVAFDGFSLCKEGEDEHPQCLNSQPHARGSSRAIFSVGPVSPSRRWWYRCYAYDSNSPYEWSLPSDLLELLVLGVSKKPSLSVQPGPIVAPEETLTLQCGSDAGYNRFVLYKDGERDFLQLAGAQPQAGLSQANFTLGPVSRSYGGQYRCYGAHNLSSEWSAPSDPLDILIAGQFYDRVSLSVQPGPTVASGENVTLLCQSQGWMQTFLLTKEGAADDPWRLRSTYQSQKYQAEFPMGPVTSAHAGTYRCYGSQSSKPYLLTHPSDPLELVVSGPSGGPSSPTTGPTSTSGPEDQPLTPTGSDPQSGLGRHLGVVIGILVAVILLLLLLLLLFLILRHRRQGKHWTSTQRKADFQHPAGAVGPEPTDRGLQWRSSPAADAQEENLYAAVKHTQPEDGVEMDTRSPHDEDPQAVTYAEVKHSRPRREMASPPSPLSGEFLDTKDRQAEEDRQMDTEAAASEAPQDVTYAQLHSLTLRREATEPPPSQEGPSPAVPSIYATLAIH
T2 sequence (Q8N423 22-597): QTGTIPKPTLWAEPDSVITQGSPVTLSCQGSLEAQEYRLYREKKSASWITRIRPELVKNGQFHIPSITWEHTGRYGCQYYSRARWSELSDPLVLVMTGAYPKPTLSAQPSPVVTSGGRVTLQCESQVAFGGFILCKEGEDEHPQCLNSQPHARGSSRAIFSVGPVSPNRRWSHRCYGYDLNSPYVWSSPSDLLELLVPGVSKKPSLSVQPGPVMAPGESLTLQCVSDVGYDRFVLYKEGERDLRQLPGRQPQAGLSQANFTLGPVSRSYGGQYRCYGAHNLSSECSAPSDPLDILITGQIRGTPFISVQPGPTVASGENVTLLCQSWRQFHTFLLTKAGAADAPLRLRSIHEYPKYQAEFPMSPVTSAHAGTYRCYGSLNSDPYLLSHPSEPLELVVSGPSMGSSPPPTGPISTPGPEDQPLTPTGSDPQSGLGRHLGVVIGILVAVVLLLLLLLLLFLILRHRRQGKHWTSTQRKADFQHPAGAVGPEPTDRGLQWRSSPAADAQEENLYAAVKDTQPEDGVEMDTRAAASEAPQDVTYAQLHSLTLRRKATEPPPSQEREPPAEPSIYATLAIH

B1: LK-RB1-55 (antibody, human IgG4 S228P, kappa, V domains shown)
VH: EVKLVESGGGLVQPGGSLKLSCAASGFTFSDYYMYWVRQTPEKRLEWVAYISNGGDITFYPDTVKGRFTISRDNARSTLYLQMSRLKSEDTAIYYCASATTEVGAMDHWGQGTSVTVSS
VL: DIVMTQSQKFMSTTVGDRVSITCKASQNVGTAVAWYQQKPGKSPKLLIYAASNRYTGVPDRFTGSGSGTDFTLTISNMQSEDLADYFCQQYSSYRTFGGGTNLEIKR
[1]
  EC50: 1.26 nM
  Top Inhibition (%): 92.6%
[2]
  binding result: no binding
[3]
  EC50: 1.68 nM

B2: LK-RB1-57 (antibody, human IgG4 S228P, kappa, V domains shown)
VH: EVKLVESGGGLVQPGGSLKLSCAASGFTFSDYYMYWVRQTPEKRLEWVAYISNGGDITFYPDTVKGRFTISRDNARSTLYLQTSRLKSEDTAIYYCASATTEVGAMDHWGQGTSVTVSS
VL: DIVMTQSQKFMSTTVGDRVSITCKASQNVGTAVAWYQQKPGKSPKLLIYAASNRYTGVPDRFTGSGSGTDFTLTISNVQSEDLADYFCQQYSSYRTFGGGTSLEIKR
[1]
  EC50: 1.67 nM
  Top Inhibition (%): 90%
[2]
  binding result: no binding
[3]
  EC50: 1.78 nM

B3: LK-RB1-52 (antibody, human IgG4 S228P, kappa, V domains shown)
VH: EVKLVESGGGLVQPGGSLKLSCAASGFIFSDYYMYWVRQTPEKRLEWVAYISNGGDITYYPDTVKGRFTISRDIARNTLFLQMGRLKSEDTAMYYCASATTEVGAMDHWGQGTSVTVSS
VL: DIVMTQSQKFMSTTVGDRVSITCKASQNVGTAVAWYQQKPGQSPKLLIYAASNRYTGVPDRFTGSGSGTDFTLTISNMQSEDLADYFCQQYRSYRTFGGGTNLEIKR
[1]
  EC50: 2.25 nM
  Top Inhibition (%): 89.7%
[2]
  binding result: no binding
[3]
  EC50: 1.8 nM

B4: LK-RB1-48 (antibody, human IgG4 S228P, kappa, V domains shown)
VH: EVKLVESGGGLVQPGGSLKLSCAASGFTFSDYYMYWVRQTPEKRLEWVAYISNGGGISFYPDTVKGRFTISRDNAKNTLYLQMSRLKSEDTAIYYCASATKEVGAMDYWGQGTSVTVSS
VL: DIVMTQSQKFLSTTVGDRVSITCKASQNVGTAVAWYQQKPGQSPKILIYSASNRYTGVPDRFTGSGSGTDFTLTISNMQSEDLADYFCQQYSSYRTFGGGTKLEIKR
[1]
  EC50: 1 nM
  Top Inhibition (%): 86.7%
[2]
  binding result: no binding
[3]
  EC50: 1.06 nM

B5: LK-RB1-42 (antibody, human IgG4 S228P, kappa, V domains shown)
VH: QVQLQQPGAELVKPGTSVKLSCKASGYSFISYWVYWVKQRPGQGLEWIGMIHPNSGSTNFNEKFRYKATLTVDKSSSTAYIQLSSLTSEDSAVYYCGRSDDGYPYHAMDSWGQGTSVTVSS
VL: DIVMTQSQKFMSTSVGDRVSVTCKASQNVGTNVAWYQQKPGQSPKALIYSASYRFSGVPDRFTGSGSGTDFTLTIGNVQSEDLAEYFCHQYKNYPLTFGGGTKLEIKR
[1]
  EC50: 4.5 nM
  Top Inhibition (%): 62.2%
[2]
  binding result: no binding
[3]
  EC50: 0.89 nM

B6: LK-RB1-47 (antibody, human IgG4 S228P, kappa, V domains shown)
VH: QIQLVQSGPELKKPGETVKISCKASGYTFTTYGMSWVKQAPGKGLKWMGWINTYSGVPTYTDDFKGRFAFSVETSASTAYLQINNLKNEDTATYFCARRERDFYGNIFFPYWGQGSLVTVSA
VL: DIQMTQTTSSLSASLGDRVTISCRASQDISNYLNWYQQKPDGTVKLLIYYTSRIHSGVPSRFSGSGSGTDFSLTISNLDQEDIATYFCQQGHTLPWTFGGGTKVEIKR
[1]
  EC50: 1.59 nM
  Top Inhibition (%): 99%
[2]
  binding result: no binding
[3]
  EC50: 1.13 nM

B7: LK-RB1-2 (antibody, human IgG4 S228P, kappa, V domains shown)
VH: QIQLVQSGPELKKPGETVKISCKASGYTFTTYGVSWVKQAPGKGLKWMGWINTYSGVSTYSDDFKGRFAFSLETSASTAYLQIINLKNEDAATYFCSRRRRTYDGYLSFDYWGQGTTLTVSS
VL: DIQMTQSPGSLSASVGETVTITCGASENIYGALNWFQRKPGKSPQLLIYGATNLADGMSSRFSGSGSGRQYSLQISSLRPDDVATYYCQNVLTTPWTFGGGTKVEIKR
Human LILRB1
  koff: 0.000118 s⁻¹

B8: LK-RB1-53 (antibody, human IgG4 S228P, kappa)
heavy: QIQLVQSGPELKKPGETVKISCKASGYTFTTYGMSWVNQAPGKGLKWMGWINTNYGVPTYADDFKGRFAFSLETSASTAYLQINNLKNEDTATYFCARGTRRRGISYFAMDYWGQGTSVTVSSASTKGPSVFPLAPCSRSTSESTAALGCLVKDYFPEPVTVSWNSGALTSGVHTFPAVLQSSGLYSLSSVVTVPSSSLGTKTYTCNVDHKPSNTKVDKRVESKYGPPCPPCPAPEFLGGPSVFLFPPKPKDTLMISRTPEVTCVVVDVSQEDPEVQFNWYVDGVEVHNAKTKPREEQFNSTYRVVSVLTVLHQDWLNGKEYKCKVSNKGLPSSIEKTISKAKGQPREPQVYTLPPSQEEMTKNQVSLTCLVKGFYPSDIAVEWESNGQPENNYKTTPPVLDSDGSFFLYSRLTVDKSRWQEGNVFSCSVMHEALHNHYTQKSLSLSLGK
light: DIVMTQSQKFMSTTVGDRVSITCKASQNVGTAVAWYQQKPGQSPKLLIYSASNRYTGVPDRFTGSDSGTDFTLTINNIQSEDLADYFCQQYSSYPLTFATGTKLELKRTVAAPSVFIFPPSDEQLKSGTASVVCLLNNFYPREAKVQWKVDNALQSGNSQESVTEQDSKDSTYSLSSTLTLSKADYEKHKVYACEVTHQGLSSPVTKSFNRGEC
[1]
  EC50: 2.01 nM
  Top Inhibition (%): 75.7%
[2]
  binding result: no binding
[3]
  EC50: 0.71 nM

B9: LK-RB1-4 (antibody, human IgG4 S228P, kappa, V domains shown)
VH: QVQLQQPGAELVKPGASVKLPCKTSGYTFTSYWMHWVKQRPGRGLEWIGRIDPHYSGTKYNEKFKNKATMTVDTPSSTAYMQLSSLTSEDSAVYYCARFDGDPYYFDYWGPGTTLTVSS
VL: DIVMTQSQKFMSTSVGDRVSVTCKASQNVGTNVAWYKQKAGQSPKAVIYSASYRYSGVPDRFTGSGSGTDFTLSISNVQSEDLAEYFCQQYNNNPFTFGSGTKLEIKR
Human LILRB1
  koff: 2.79e-05 s⁻¹

B10: LK-RB1-39 (antibody, human IgG4 S228P, kappa, V domains shown)
VH: EVQLQQSGAELVRPGASVKLSCTASGFNIKDDYVHWVNQRPEQGLEWIGWIDPENGDTGYASKFQDKATITADTSSNTAYLHLSSLTSEDTAVYYCTTTRWTGSYWGQGTTLTVSS
VL: QIVLTQSPAIMSASPGEKVTITCSASSSVNYMHWFQQKPGSSPKLWIYSTANLASGVPARFSGSGSGTSYSLTISRMEAEDAATYYCQQRSSYPPTWTFGGGTKLEIKR
[1]
  EC50: 0.68 nM
  Top Inhibition (%): 95.7%
[2]
  EC50: 0.17 nM
[3]
  EC50: 0.77 nM

B11: LK-RB1-49 (antibody, human IgG4 S228P, kappa, V domains shown)
VH: QIQLVQSGPELKKPGETVKISCKASGYTFTTYGMSWVKQAPGKGLKWMGWINTYSGVPTYADDFKGRFAFSLETSGSTAYLQISNLKNEDTATYFCSRLFRSWDSYAMDYWGQGTSVTVSS
VL: DIVMTQSQKFMSATVGDRVSITCKASQNVGTAVAWYQQKPGQSPKLLIYSPSNRYTGVPDRFTGSGSGTHFTLTINNMQSEDLADYFCQQYSTYPLTFGAGTKLELNR
[1]
  EC50: 2.32 nM
  Top Inhibition (%): 91.4%
[2]
  binding result: no binding
[3]
  EC50: 2.05 nM

B12: LK-RB1-6 (antibody, human IgG4 S228P, kappa, V domains shown)
VH: QIQLVQSGPELKKPGETVKISCKASGYTFTTYGMSWVKQAPGKDLKWMGWINTFSGVPACADDFQGRFDFSAEPSDSTAHLQINNLKNEDTATYFCARRSYYGSRGWYFDVWGTGTTVTVSS
VL: DIVMTQSHKFMSTSVGDRVSITCTASEDVNTAVAWYQQKPGQSPKLLIYWASTRHTGVPDRFTGSGSGTDYTLTISSVQTEDLALYYCQQHYNTPYTFGGGTKLEIKR
Human LILRB1
  koff: 0.00059 s⁻¹

B13: LK-RB1-7 (antibody, human IgG4 S228P, kappa, V domains shown)
VH: QIQLVQSGPELKKPGETVKISCKASGYTFTTYGMSWVKQAPGKDLKWMGWINTFSGVPACADDFQGRFDFSAEPSDSTAHLQINNLKNEDTATYFCARRSYYGSRGWYFDVWGTGTTVTVSS
VL: DVQMIQSPSSLSASLGDIVTMTCQASQDTTINLNWFQQKPGKVPKLLIYGASNLEDGVPSRFSGSSFGTDFTLTISSLEDEDMATYFCLQHTYLPRTFGGGTKLEIRR
Human LILRB1
  koff: 0.00059 s⁻¹

B14: LK-RB1-3 (antibody, human IgG4 S228P, kappa, V domains shown)
VH: QVQLQQPGAELVKPGTSVNLSCKASGYTFTSYWIHWVKQRPGRGLEWIGRINPYSSGTRYNEKFKNKATLTVDKPSSTAYMQLTSLTSEDSAVYYCARFDGAPDYFDFWGQGTTLTVSS
VL: DIVMTQSQKFMPTSVGDRVNVTCKASQNVGINVAWYQQKLGQSPKALIYSASYRYSGVPDRFTGSGSGTDFTLTINSVQSEDLADYFCQQYNNYPFTFGSGTKLEIKR
Human LILRB1
  koff: 5.24e-05 s⁻¹
